Assay [1] addresses [Alexa488]-QnrB1 (QnrB1-His, N-terminally labelled with AlexaFluor 488). In words: fluorescence polarisation; as a1 but subunits with 1 mM ADPNP, incubated for an additional 1 h at room temperature with addition of 2 mM MgCl2.
Assay [2] shares this target. Put plainly: fluorescence polarisation; fluorescence anisotropy; 50 nM Alexa488-labelled QnrB1 mixed with gyrase subunit(s) in EMSA buffer (30 mM Tris-Cl pH 7.5, 75 mM KCl, 6% glycerol, 2 mM MgCl2, 1 mM DTT), 10 min at room temperature; one site specific binding fit. (In general: Fluorescence polarisation rises when a labelled molecule tumbles more slowly, as on binding a larger partner.)

In assay [3] the target is E. coli DNA gyrase A2B2 complex (E. coli) (UniProt P0AES4). In words: native gel or EMSA; 20 nM 147 bp pBR322 dsDNA fragment with 0.2 μM reconstituted gyrase in EMSA buffer, QnrB1 added as indicated; 30 min at 25°C; 6% polyacrylamide gel in TBM; IC50 = QnrB1 concentration that halves the bound DNA. Background: In EMSA bound probe runs differently from free probe, usually more slowly.

The target is the same in assay [4].
Assay [5] concerns the target GyrB 43 kDa domain (GyrB43), N-terminal ATPase-transducer domain of E. coli GyrB (E. coli).
In assay [6] the target is E. coli DNA gyrase subunit B, full-length untagged (E. coli) (UniProt P0AES6).
The target of assay [7] is GyrB 43 kDa domain (GyrB43), N-terminal ATPase-transducer domain of E. coli GyrB (E. coli). The source holds these as a separate data set.
For assay [8], the target named is Gyrase (Escherichia coli) (UniProt P0AES4). As to conditions: cited from earlier work.

A value given as a limit tells only on which side of the number the result lay.

Regarding “E. coli DNA gyrase A2B2 complex (from UniProt P0AES4 1-875; P0AES6 1-804)”, the Kd came out at 1.78 µM in assay [1] and 80 nM in assay [2].
In assay [2], “E. coli DNA gyrase subunit A, full-length untagged (from UniProt P0AES4 1-875) (natural protein)” gave a Kd of 3900 nM.
For the substance “E. coli DNA gyrase subunit B, full-length untagged (from UniProt P0AES6 1-804) (natural protein)”, the Kd stood at 3.8 µM in assay [1] and 2530 nM in assay [2].
Turning to “GyrB 43 kDa domain (GyrB43), N-terminal ATPase-transducer domain of E. coli GyrB (domain or fragment)”, the Kd in assay [1] turned out to be 12.2 µM; in assay [2], 1770 nM.
The substance “QnrB1 with a C-terminal 6xHis tag (wild type, unlabelled) (natural protein)” came in with a 50% inhibitory concentration (IC50) in assay [3] of 10.9 µM. This substance gave a DNA-independent ATP hydrolysis rate of 50 nM gyrase (A2B2) with 5 μM QnrB1 in assay [4] of 3 fold. This substance yielded an ATPase reaction rate of 4 μM GyrB43 with 5 μM QnrB1 against no QnrB1 in assay [5] of 17 fold. For the same substance, the ATPase activity of the full-length GyrB subunit with QnrB1 (not shown) in assay [6] was less than 2 fold. For the same substance, the QnrB1-dependent activation of GyrB43 ATPase activity (4 μM GyrB43, 1 mM ATP), Km for QnrB1 of a Michaelis-Menten fit in assay [7] was determined as 3.61 µM.
As for YacG (from UniProt C4ZRJ5), in assay [8], the inhibition constant (Ki) is 35 nM.

The Kd is the equilibrium constant for the complex coming apart. Read a low Kd as tighter binding. The IC50 is the concentration that gives 50% inhibition. In general, Ki refers to the equilibrium dissociation constant of an inhibitor or competing ligand from its target.

(Values after article PMC7897471.)
